Source: patent US9127260B2

Assays:
[1] = molecular target: Natuphos (Natuphos 10000L, BASF), commercial phytase
[2] = molecular target: T1, synthetic phytase Fus5#2 (mature) (synthetic fusion of Hafnia sp. LU11047 phytase and Yersinia mollaretii ATCC 43969 phytase fragments)
T1 sequence: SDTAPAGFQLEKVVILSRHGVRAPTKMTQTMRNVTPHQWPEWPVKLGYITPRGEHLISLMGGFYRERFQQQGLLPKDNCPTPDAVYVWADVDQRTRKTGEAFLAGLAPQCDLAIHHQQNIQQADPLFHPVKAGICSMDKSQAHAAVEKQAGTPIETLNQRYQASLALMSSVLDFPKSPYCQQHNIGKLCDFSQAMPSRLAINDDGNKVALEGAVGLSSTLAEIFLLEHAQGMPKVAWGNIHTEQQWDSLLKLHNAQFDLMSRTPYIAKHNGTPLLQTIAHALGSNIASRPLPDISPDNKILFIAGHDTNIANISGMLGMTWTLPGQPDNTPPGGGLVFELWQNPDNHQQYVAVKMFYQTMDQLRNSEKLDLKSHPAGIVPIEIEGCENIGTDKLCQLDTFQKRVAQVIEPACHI

pepsin (Sigma P-7000, 445 U/mg) (from UniProt P00791) (enzyme)
Stability to pepsin (residual phytase activity after 30 min at 37 C with 10 mg/ml pepsin, pH 2, relative to a pH 5.5 reference) [1]: 20% | Stability to pepsin (residual phytase activity after 30 min at 37 C with 10 mg/ml pepsin, pH 2, relative to a pH 5.5 reference) [2]: 1%
